We go through four molecules from patent publication US20220396627A1 (VERSEAU THERAPEUTICS, published 2022).

Usually Kd stands for the free concentration of one partner at which half of the binding sites on the other are occupied at equilibrium, for simple one-to-one binding.

The target of test [1] is Human Siglec-9-Fc (recombinant human Siglec-9 extracellular domain Q18-G348 fused to human IgG1 Fc) (human). Briefly: ELISA: plate coated with 1 ug/mL human Siglec-9-Fc, antibody at 100 nM, HRP anti-mouse Fc secondary, RLU. Here is the method:
ELISA plates (384-well) were coated with 1 ug/mL indicated SIGLEC protein at room temperature. The plates were washed with PBS with 0.1% Tween®20, pH 7.4 and blocked with TBS containing 3% BSA. The plates were washed and incubated with anti-SIGLEC9 antibody diluted to 100 nM. Plates were washed and incubated with HRP-coupled anti-mouse Fc secondary antibody. Plates underwent a final wash and were incubated with HRP substrate. Readout was performed using a POLARstar Omega Microplate Reader (BMG LAPTECH).

Test [2] addresses T1, Recombinant human Siglec-7-His (human, UniProt Q9Y286 19-353, limits assumed). Kind of test: BLI (Octet Red384), chimeric antibody on AHC sensor, His-tagged analyte. As for the experimental part: (§1) The binding affinity of chimeric antibodies was determined by biolayer interferometry (BLI), using a ForteBio Octet Red384 system. All samples were prepared in black 96-well flat bottom plates (Greiner, Cat. #655209) diluted in kinetics buffer (lx DPBS (Gibco, Cat. #LS14190250) containing 0.1% bovine serum albumin, 0.05% sodium azide, and 0.02% Tween®20). Anti-SIGLEC-9 antibodies (ligand) were diluted to a final concentration of 10 ug/mL and captured on anti-human IgG Fc capture (AHC) biosensors (ForteBio, Cat. #18-5060). […] Biosensors were rehydrated prior to the assay in kinetics buffer for 10 minutes and then equilibrated in kinetics buffer for 60 seconds. Antibody was then immobilized for 300 seconds followed by a 120 second baseline wash in fresh kinetics buffer, 300 second analyte association, and 300 second dissociation in the same buffer wells as the baseline wash step. All assay steps occurred at 30° C. with an acquisition rate of 5.0 Hz
(§2) Processing parameters included double reference subtraction, with human IgG4 used as an isotype control for reference sensor subtraction and immobilized ligand in kinetics buffer with no analyte used for reference sample subtraction. Y-axis data was aligned to the average baseline step for the last 5 seconds and all steps were inter-step corrected to the start of the dissociation step. High frequency noise was removed using Savitzky-Golay filtering and final fitting was a 1:1 global binding model to both association and dissociation.
On the technique in general: Biolayer interferometry detects binding as a change in optical thickness at a sensor tip.

Test [3] addresses T2, Recombinant cyno Siglec-9-His (cynomolgus macaque).
T2 construct: also called Cynomolgus Monkey SIGLEC9-HIS
The test is described as above. Here is the method:
as §1, §2

Test [4] deals with T3, Recombinant human Siglec-9-His (human, UniProt Q9Y336 18-348).
T3 construct: The entry begins at QTSK... like the Q18-G348 extracellular domain of the Fc fusion and ends in GSG and a His tag
Briefly: BLI (Octet Red384), chimeric antibody on AHC sensor, His-tagged analyte 100-1.56 nM, 1:1 global fit. As for the experimental part: as §1, §2

Test [5] concerns the target T1, Recombinant human Siglec-7-His. Described as above. Here is the method:
as §1, §2

Test [6] addresses T2, Recombinant cyno Siglec-9-His. Described as above. Here is the method: as §1, §2

T1 sequence (Q9Y286 19-353 limits assumed): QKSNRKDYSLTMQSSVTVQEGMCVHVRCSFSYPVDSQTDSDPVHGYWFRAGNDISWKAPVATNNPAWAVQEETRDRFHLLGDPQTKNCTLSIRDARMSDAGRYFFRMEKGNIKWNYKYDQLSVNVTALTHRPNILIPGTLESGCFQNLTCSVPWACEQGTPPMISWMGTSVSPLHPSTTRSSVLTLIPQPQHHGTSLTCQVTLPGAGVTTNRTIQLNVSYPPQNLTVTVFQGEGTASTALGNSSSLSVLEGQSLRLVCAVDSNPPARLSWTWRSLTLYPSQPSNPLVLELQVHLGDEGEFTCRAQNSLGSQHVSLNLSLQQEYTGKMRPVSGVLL
T2 sequence (chain, as listed by the source limits assumed): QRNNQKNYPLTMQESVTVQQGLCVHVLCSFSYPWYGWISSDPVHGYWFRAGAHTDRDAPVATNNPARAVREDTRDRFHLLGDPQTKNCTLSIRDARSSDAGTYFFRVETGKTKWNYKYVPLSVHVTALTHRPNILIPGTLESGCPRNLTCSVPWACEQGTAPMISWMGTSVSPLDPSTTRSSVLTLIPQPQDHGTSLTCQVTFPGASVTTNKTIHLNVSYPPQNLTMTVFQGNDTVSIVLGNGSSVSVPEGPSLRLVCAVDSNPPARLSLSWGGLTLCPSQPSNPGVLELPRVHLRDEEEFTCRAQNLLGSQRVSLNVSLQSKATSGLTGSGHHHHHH
T3 sequence (Q9Y336 other isoform, or with tags, fused parts or gaps limits assumed): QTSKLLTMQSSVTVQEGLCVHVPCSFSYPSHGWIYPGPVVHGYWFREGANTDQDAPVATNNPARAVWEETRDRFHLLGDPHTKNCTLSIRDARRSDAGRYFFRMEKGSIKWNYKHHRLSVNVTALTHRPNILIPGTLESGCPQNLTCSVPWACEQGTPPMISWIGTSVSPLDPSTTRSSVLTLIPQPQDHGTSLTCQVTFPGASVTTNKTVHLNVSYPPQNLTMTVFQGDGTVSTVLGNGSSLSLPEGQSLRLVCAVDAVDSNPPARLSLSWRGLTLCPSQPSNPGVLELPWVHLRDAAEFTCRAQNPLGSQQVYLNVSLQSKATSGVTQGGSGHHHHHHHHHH
Human Siglec-9-Fc (recombinant human Siglec-9 extracellular domain Q18-G348 fused to human IgG1 Fc) (human), sequence (chain, as listed by the source limits assumed): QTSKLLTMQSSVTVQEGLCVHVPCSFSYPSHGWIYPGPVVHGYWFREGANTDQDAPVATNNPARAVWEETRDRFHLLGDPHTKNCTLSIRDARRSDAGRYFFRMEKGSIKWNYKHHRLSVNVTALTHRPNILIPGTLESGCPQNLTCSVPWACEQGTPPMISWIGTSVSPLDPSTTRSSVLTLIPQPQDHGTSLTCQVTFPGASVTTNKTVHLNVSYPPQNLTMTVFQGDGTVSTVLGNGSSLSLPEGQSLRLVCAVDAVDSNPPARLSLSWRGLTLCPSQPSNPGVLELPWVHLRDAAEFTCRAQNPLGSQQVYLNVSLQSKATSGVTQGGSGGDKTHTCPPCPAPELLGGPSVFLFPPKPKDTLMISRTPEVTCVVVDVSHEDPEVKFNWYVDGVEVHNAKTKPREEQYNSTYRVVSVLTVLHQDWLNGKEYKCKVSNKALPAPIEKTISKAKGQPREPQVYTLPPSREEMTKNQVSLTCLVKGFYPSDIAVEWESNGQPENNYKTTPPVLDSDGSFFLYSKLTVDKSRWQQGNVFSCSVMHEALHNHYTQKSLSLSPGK

B1: 2E23 (antibody, V domains shown)
VH: QVQLQQPGAELVKPGASVKLSCKASGYTFTSYWMHWVKQRPGQGLEWIGEINPSNGGTNYNEKFKSKATLTVDKSSSTAYMQLSSLTSEDSAVYYCTIYYGDYSYPIDYWGQGTSVTVSS
VL: QIVLTQSPAIMSASPGEKVTLTCSASSSVSSSYLYWYQQKPGSSPKLWIYSTSNLASGVPTRFSGSGSGTSYCLTISSMETEDAASYFCHQYSSYPFTFGSGTKLEIK
Turning to B1, the binding result in test [1] is reported as “binds”.

B2: 13H10 mouse/human chimeric antibody (human IgG4 S228P, kappa) (antibody, V domains shown)
VH: QVQLQQPGAELVKPGASVKLSCKASGYTFTSYWMYWVKQRPGQGLDLIGEINPSNGGTNYNEKFKSKATLTVDKSSGTAYMQLSSLTSEDSAVYYCAIWKDYYGISYEDWYFDVWGTGTTVTVSS
VL: DILLTQSPAILSVSPGERVSFSCRASQSIGTSIHWYQQRTNGSPRLLIKYASESISGIPSRFSGSGSGTDFTLSINSVESEDIADYYCQQSNSWPLTFGAGTKLELKR
notes: 13H10 is deposited as ATCC PTA-125944
In the case of B2, the binding result in test [2] and in test [3] was “no binding (tested: analyte titrated from 100 nM to 1.56 nM)” in each case. For the same molecule, in test [4], the Kd came to 2.6 pM.

B3: 13J19 mouse/human chimeric antibody (human IgG4 S228P, kappa) (antibody, V domains shown)
VH: QVQLKESGPGLVAPSQSLSITCTVSGFSLTSYGVSWVRQPPGKGLEWLGVVWRDGTTNYHSALISRLSISKDNSKSQVFLKLNSLQTDDTATYYCARPYYGFFDYWGQGTTLTVSS
VL: SIVMTQTPKFLLVSAGDRVTVTCKASQSVSNAVAWYQQKPGQSPKLLIYYASNRYTGVPDRFTGSGYGTDFTFTISTVQAEDLAVYFCQQNYNSPYTFGGGTKLEIKR
notes: 13J19 is deposited as ATCC PTA-125945
As to B3, the dissociation constant Kd in test [5] worked out at 20 nM; in test [6], 6.8 pM; in test [4], 2.1 pM.

B4: 3L02 mouse/human chimeric antibody (human IgG4 S228P, kappa) (antibody, V domains shown)
VH: DVQLQESGPGMVKPSQSLSLTCTVTGYSITSGYDWHWIRHFPGNKLEWMGYISYSAGTNYNPSLKSRISITHDTSKNHFFLKLNSVTTEDTATYYCAREGLTAYWYFDVWGTGTTVTVSS
VL: DIVMTQSQKFMSTSVGDRVSVTCKASQTVGTNVAWYQQKPGQSPKPLIYSASYRYSGVPDRFTGSGSGTDFTLTISNVQSEDLAEYFCQQYDSFPLTFGSGTKLEIKR
Consider B4, for which the binding result in test [2] and in test [3] was “no binding (tested: analyte titrated from 100 nM to 1.56 nM)” throughout. Further, the Kd in test [4] is 4.4 pM.
